Among the targets are human IGF-1 (human) (UniProt P05019); human IGF-2 (human) (UniProt P01344); human IGF-1R (human) (UniProt P08069).
Common to all, as to test: cell-based or functional assay

Data on two substances can be found in patent US20150010574A1.

Chain of human IGF-2 (human) (P01344 25-91 limits assumed): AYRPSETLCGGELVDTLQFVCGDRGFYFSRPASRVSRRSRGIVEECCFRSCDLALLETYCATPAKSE
Chain of human IGF-1R (human) (P08069 31-1367): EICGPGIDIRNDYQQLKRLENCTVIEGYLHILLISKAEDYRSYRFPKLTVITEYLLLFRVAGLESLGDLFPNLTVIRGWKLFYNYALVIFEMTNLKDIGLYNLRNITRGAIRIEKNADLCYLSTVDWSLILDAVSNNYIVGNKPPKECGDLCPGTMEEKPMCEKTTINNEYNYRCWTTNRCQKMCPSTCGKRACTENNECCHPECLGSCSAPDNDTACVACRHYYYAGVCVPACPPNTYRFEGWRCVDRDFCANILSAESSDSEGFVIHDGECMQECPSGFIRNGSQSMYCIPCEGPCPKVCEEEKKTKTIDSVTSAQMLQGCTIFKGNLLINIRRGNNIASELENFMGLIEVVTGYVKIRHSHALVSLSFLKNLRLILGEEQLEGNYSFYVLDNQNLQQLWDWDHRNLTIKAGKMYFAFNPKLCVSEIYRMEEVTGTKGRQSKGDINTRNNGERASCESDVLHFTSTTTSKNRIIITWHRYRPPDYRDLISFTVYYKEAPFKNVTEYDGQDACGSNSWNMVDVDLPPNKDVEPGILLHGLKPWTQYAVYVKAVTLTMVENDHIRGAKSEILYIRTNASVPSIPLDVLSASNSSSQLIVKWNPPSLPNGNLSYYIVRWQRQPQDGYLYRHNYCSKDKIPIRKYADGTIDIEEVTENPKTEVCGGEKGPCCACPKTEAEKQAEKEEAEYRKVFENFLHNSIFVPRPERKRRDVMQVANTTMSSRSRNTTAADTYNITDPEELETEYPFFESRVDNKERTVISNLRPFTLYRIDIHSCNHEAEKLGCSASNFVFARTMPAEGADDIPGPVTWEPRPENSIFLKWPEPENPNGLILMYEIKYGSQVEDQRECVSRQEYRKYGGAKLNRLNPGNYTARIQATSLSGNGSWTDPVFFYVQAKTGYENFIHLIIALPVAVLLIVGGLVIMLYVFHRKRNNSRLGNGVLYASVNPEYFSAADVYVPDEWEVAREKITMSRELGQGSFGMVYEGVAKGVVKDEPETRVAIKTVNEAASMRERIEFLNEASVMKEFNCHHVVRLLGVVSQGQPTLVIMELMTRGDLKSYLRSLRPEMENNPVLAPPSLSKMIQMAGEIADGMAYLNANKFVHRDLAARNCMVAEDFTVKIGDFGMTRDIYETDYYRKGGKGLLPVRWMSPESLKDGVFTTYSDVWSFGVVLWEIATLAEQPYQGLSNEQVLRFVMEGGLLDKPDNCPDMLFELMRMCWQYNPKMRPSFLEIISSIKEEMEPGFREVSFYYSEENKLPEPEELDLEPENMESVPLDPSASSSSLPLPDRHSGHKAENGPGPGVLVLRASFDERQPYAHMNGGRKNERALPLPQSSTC
Chain of human IGF-1 (human) (P05019 49-118): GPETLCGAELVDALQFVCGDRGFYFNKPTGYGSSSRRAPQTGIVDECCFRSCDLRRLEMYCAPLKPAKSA

In turn, Control IgG (antibody) had a % Remaining Phosphorylation at 15 µg/mL (100 nM) Inhibitor; IGF-1 (20 ng/mL) induced IGF-1R phosphorylation with human IGF-1 (human) of 108%. In the experiment with human IGF-2 (human), this substance came in with a % Remaining Phosphorylation at 15 µg/mL (100 nM) Inhibitor; IGF-2 (100 ng/mL) induced IGF-1R phosphorylation of 108%; a % Remaining Phosphorylation at 15 µg/mL (100 nM) Inhibitor; IGF-2 (100 ng/mL) induced IR-A phosphorylation of 109%; an IC50 of IGF-2 (100 ng/mL) induced IGF-1R phosphorylation, cell based ELISA above 15 µg/mL; an IC50 of IGF-2 (100 ng/mL) induced IR-A phosphorylation, cell based ELISA above 15 µg/mL.
In the case of “IGF-1R antibody αIR-3 (Calbiochem, No. GR11L)”, in the experiment with human IGF-1R (human), the % Remaining Phosphorylation at 15 µg/mL (100 nM) Inhibitor; IGF-1 (20 ng/mL) induced IGF-1R phosphorylation turned out to be 35%; the % Remaining Phosphorylation at 15 µg/mL (100 nM) Inhibitor; IGF-2 (100 ng/mL) induced IGF-1R phosphorylation was determined as 76%; the % Remaining Phosphorylation at 15 µg/mL (100 nM) Inhibitor; human serum (20%) induced IGF-1R phosphorylation was determined as 120%; the IC50 of IGF-1 (20 ng/mL) induced IGF-1R phosphorylation, cell based ELISA was 1.16 µg/mL. In the experiment with human IGF-1R (human), this substance had an IC50 of IGF-2 (100 ng/mL) induced IGF-1R phosphorylation, cell based ELISA above 15 µg/mL and an IC50 of human serum (20%) induced IGF-1R phosphorylation, cell based ELISA above 15 µg/mL.
